Publication PMC11438962

Target: biotin-labeled HNRNPA1 peptide carrying R194 symmetric dimethylation (SDMA)
Test: BLI; Octet-RED96; biotinylated R194 SDMA HNRNPA1 peptide immobilised on streptavidin biosensors at 10 µg/mL; ZMYND11-MYND serially diluted three-fold from 333 nM in PBST; 300 s association, 300 s dissociation; 1:1 binding model

## His-tagged recombinant MYND domain of ZMYND11 (domain or fragment)
  Kd: 3.5 nM
